pIC50: −log10 of the molar value.
What was measured:
[1] = molecular target: mu3 opiate receptor (human) (UniProt P35372); experiment: displacement of [3H]-dihydromorphine, membrane suspension of human lung non-small cell carcinoma
[2] = molecular target: mu3 opiate receptor (human) (UniProt P35372); experiment: displacement of [3H]-dihydromorphine, membrane suspension of human granulocytes
[3] = molecular target: mu3 opiate receptor (human) (UniProt P35372); experiment: displacement of [3H]-dihydromorphine, membrane suspension of normal human lung

Measured: pIC50

mu3 opiate receptor (human), sequence (P35372 whole entry): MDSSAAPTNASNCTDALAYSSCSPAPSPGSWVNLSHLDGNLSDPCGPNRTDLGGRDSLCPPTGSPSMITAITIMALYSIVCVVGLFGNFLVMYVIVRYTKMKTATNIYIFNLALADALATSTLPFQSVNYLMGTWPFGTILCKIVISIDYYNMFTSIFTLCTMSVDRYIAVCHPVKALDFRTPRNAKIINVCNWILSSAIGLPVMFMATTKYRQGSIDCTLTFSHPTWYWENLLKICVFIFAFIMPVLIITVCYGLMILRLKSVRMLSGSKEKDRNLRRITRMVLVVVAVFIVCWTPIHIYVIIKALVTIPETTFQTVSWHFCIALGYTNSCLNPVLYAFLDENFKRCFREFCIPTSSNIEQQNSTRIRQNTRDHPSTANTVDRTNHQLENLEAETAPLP

(D-Ala^2, Leu^5)-enkephalin (from UniProt P01210 230-234) (peptide)
< 6.00: all assays above

Dynorphin 1-17 (from UniProt P01213 207-223) (peptide)
< 6.00: all assays above

(D-Pen^2, D-Pen^5)-enkephalin (peptide)
< 6.00: all assays above

Deltorphin (peptide)
< 6.00: all assays above
